Measured values as given in the supplement of paper PMC10201428.
± gives the standard deviation of the averaged measurements.

How the values were obtained:
[1] = tested on: VchCAST RNA-guided transposition machinery (E. coli BL21(DE3) host, lacZ target); assay: relative integration efficiency (T-RL orientation) vs wild-type transposon end (log2 (normalized fold change)); transposon end mutated: right end (5 bp flank + 75 bp right end); higher = more efficient transposition
Method in brief: (§1)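 Co-transformation of E. coli BL21(DE3) combined a pUC57 mini-transposon donor, holding barcoded pools of 1549 left-end or 1849 right-end variants, with a T7-driven plasmid encoding a CRISPR array, tniQ-cas8-cas7-cas6 and tnsA-tnsB-tnsC. After plating with 0.1 mM IPTG at 37°C for 18 h, input plasmids and genomic integration junctions were PCR-amplified and Illumina-sequenced across two biological output replicates, with four reference barcodes. Relative integration efficiency is the normalised, log-transformed output/input barcode fold change.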

[2] = tested on: VchCAST RNA-guided transposition machinery (E. coli BL21(DE3) host, lacZ target); assay: relative integration efficiency (T-LR orientation) vs wild-type transposon end (log2 (normalized fold change)); transposon end mutated: right end (5 bp flank + 75 bp right end); higher = more efficient transposition
Method in brief: as §1

| Sequence | relative integration efficiency (log2) [1] | relative integration efficiency (log2) [2] |
| --- | --- | --- |
| ACATTTGTTGATACAACCATAAAATGATCCGGCCACCCATAAATTGATCCGGCTCACACCCATAAATTGATCGGTACTCTGATCATAGTCAGACCAACATTGCTACGACCCGTATTCGCACCGACAC | -2.73 ± 0.41 | -0.827 ± 0.14 |
| ACATTAGTTGATACAACCATAAAATGATAATTACACCCATAAATTCATAATTATCACACCCAATTTAACTATAACGCTCTGATCATAGTCAGACCAACATTGCTACGACCCGTATTCGCACCGACAC | -6.87 ± 0.4 | -4.45 ± 0.066 |
| ACATTGGTTCATACAACCATAAAATGATAATTACACCCATAAATGGATAATTATCACACCCAATTTAACTATAACGCTCTGATCATAGTCAGACCAACATTGCTACGACCCGTATTCGCACCGACAC | -7.74 ± 0.3 | -5.92 ± 3.5 |
| ACATTTGTTGATACAACCATAAAATGATAATTACAACCATAAAATGATAATTATCATAATTATCATTTTATGGTTGCTCTGATCATAGTCAGACCAACATTGCTACGACCCGTATTCGCACCGACAC | 0.241 ± 0.067 | 1.96 ± 0.16 |
| ACATTTGTTGATACAACCATAAAATGATAATTACACCCATAAATTGATAATTATCACACCCATAAATTGATATTGCCTCTGATCATAGTCAACTGTATATAAATACAGTTCAGACCAGCACCGACAC | -0.116 ± 0.21 | 0.274 ± 0.022 |
| ACATTTGTGGATACAACCCTAAAATGATAATTACACCCATAAATTGATAATTATCACACCCAATTTAACTATAACGCTCTGATCATAGTCAGACCAACATTGCTACGACCCGTATTCGCACCGACAC | -1.73 ± 0.26 | 1.32 ± 0.36 |
| ACATTTGAAGATACAACCATAAAATGATAATTACACCCATAAATTGATAATTATCACACCCATAAATTGATATTGCCTCTGATCATAGTCAGACCAACATTGCTACGACCCGTATTCGCACCGACAC | -0.132 ± 0.019 | -0.786 ± 0.12 |
| ACATTTGTTGATACAACCATAAAATGATAATTACTCTGATCATAGTCAGACCAACATTGCTACGACCCCACCCATAAATTGATAATTATCACACCCATAAATTGATATTGCGTATTCGCACCGACAC | -3.23 ± 0.04 | -0.249 ± 0.18 |
| ACATTTGTGGATACAACCATAAAATGATAATTACACCCATAAATGGATCATTATCACCCCCAATTTAACTATAACGCTCTGATCATAGTCAGACCAACATTGCTACGACCCGTATTCGCACCGACAC | -1.28 ± 0.28 | 1.36 ± 0.19 |
| ACATTTGTTGATACAACCATAAAATGATAATTAATAATCACCCATAAATTGATAATTATCACACCCATAAATTGATATTGCCTCTGATCATAGTCAGACCAACATTGCTACGACCCGTATTCGCACC | -2.77 ± 0.17 | 0.894 ± 0.13 |
| ACATTTGTTGAATGTACCATAAAATGATAATTACACCCATAAATTGATAATTATCACACCCATAAATTGATATTGCCTCTGATCATAGTCAGACCAACATTGCTACGACCCGTATTCGCACCGACAC | -0.836 ± 0.071 | -1.92 ± 0.32 |
| ACATTTGTTGATACAACCATATATTGATATCTCCAACCATATATTGATATCTCTCACACCCATAAATTGATATTGCCTCTGATCATAGTCAGACCAACATTGCTACGACCCGTATTCGCACCGACAC | -0.682 ± 0.15 | -0.162 ± 0.005 |
| ACATTTGTTGATACAACCATAAAATGATAATTAATAATTATTTATAATCAGCAACTTAACCACCCATAAATTGATAATTATCAACAAACGCCCGGTCGCGGTACTCTGATCATAGTCAGACCAACAT | -3.11 ± 0.29 | 0.501 ± 0.39 |
| ACATTTGTTGATACAACCATAAAATGATAATTCACCCCTAAATTGATAATTATCACACCCACATTTAACTATAACGCTCTGATCATAGTCAGACCAACATTGCTACGACCCGTATTCGCACCGACAC | -3.72 ± 0.048 | -0.17 ± 0.1 |
| ACATTTGTTGATATAATTATCATTTTATGGTTGCAACCATAAAATGATAATTATCACAACCATAAAATGATAATTACTCTGATCATAGTCAGACCAACATTGCTACGACCCGTATTCGCACCGACAC | -3.54 ± 0.15 | -4.32 ± 2.7 |
| ACATTTGTAAAAAAAACCATACGTTGATTTTACGAAACCATACGCTGAAATAATCACAACCATAACTTGAAATTGCCTCTGATCATAGTCAGACCAACATTGCTACGACCCGTATTCGCACCGACAC | -6.63 ± 1.2 | < -10 |
| ACATTTGTTGATACAACCATAAAATGATAATTACACCCATAAATTGATAATTATCACACCCATAAATTGATATTGCCTCTGATCATAGTCAGACAACCATAAAATGATAATTACCAAGCACCGACAC | -0.231 ± 0.065 | -0.436 ± 0.47 |
| ACATTTGTTGATACAACCATAAAATGATAATTACACCCATAAATTGATATTGCTCACAACCATATATTGATATCTCCTCTGATCATAGTCAGACCAACATTGCTACGACCCGTATTCGCACCGACAC | -0.74 ± 0.17 | 0.579 ± 0.21 |

| Sequence | relative integration efficiency (log2) [1] | relative integration efficiency (log2) [2] |
| --- | --- | --- |
| ACATTTGTTGATACAACCATAAAATGATAATTACACCCATAAATTGATAATTATCACACCCATAAATTGATATTGCCTCCAACCATAAAATGATAATTATGATCATAGTCAGACCAAGCACCGACAC | -0.0389 ± 0.26 | -0.77 ± 0.082 |
| ACATTTGTTGATACAACCATAAAGTGATATTTACAACCATATATTGATATCTCTCACAACCATAAGTTGATATTTTCTCTGATCATAGTCAGACCAACATTGCTACGACCCGTATTCGCACCGACAC | -0.0164 ± 0.24 | 0.252 ± 0.15 |
| ACATTTGTTGATACAACCATAAAATGATTATTACACCCATAAATTGATAATAATGACACCGAATTTAACTATAACGCTCTGATCATAGTCAGACCAACATTGCTACGACCCGTATTCGCACCGACAC | -0.616 ± 0.36 | 2.95 ± 0.061 |
| ACATTTGTTGATACAACAATAAAATGATAATTACACCAATAAATTGATAATTATCACACCAATAAATTGATATTGCCTCTGATCATAGTCAGACCAACATTGCTACGACCCGTATTCGCACCGACAC | -0.726 ± 0.084 | -0.547 ± 0.67 |
| ACATTTGTTGATACAACCATAAAATGATAATTACACCCATAAATTGATAATTTAGTCACCCATAAATTGATATTGCCTCTGATCATAGTCAGACCAACATTGCTACGACCCGTATTCGCACCGACAC | -0.447 ± 0.07 | 0.247 ± 0.11 |
| ACATTTGTTGATACAACCCTAAAATGATAATTACACCCATAAATTGATAATTATCACCCCCAATTTAACTATAACGCTCTGATCATAGTCAGACCAACATTGCTACGACCCGTATTCGCACCGACAC | -1.61 ± 0.24 | 1.5 ± 0.089 |
| ACATTTGTTGATACAACCATAAAATGATAATTACACCCATAAATTGATATATATCACACCCATAAATTGATATTGCCTCTGATCATAGTCAGACCAACATTGCTACGACCCGTATTCGCACCGACAC | -0.313 ± 0.16 | 4.91e-05 ± 0.14 |
| ACATTTCTTCATACAACCATAAAATGATAATTACACCCATAAATGGATCATTATCACACCCAATTTAACTATAACGCTCTGATCATAGTCAGACCAACATTGCTACGACCCGTATTCGCACCGACAC | -4.65 ± 0.36 | -3.69 ± 0.99 |
| ACATTTGTTGATACAACCATAAAATGATAATTACACCCATAAATTGATAATTATCACACCCATAAATTGATATTGCCTCTTCATGCAGATTTGAACAGTTTCAAATGCTGATTTTCAGCACCGACAC | 0.29 ± 0.31 | 0.372 ± 0.19 |
| ACATTTGTTGATACAACCATAAAATGATAATTACACCCATAAATTGATAATTATCACACCCATAAATTGATATTGCCTCAACCATAAAATGATAATTACTGATCATAGTCAGACCAAGCACCGACAC | -0.275 ± 0.21 | -1.08 ± 0.72 |
| ACATTTGTTGATACAACCATAAAATGATAATTACACAAATAAATTGATAATTATCACACCCATAAATTGATATTGCCTCTGATCATAGTCAGACCAACATTGCTACGACCCGTATTCGCACCGACAC | -0.996 ± 0.19 | -1.82 ± 0.23 |
| ACATTTGTTGATAGTTGGTATTTTACTATTAATGTGGGTATTTAACTATTAATTCACACCCATAAATTGATATTGCCTCTGATCATAGTCAGACCAACATTGCTACGACCCGTATTCGCACCGACAC | -6.222 ± 0.043 | -3.485 ± 0.034 |
| ACATTTGTTGATACAACCATAAAATGCGCCGGCCACCCATAAATTGCGCCGGCTCACACCCATAAATTGCGCGGTACTCTGATCATAGTCAGACCAACATTGCTACGACCCGTATTCGCACCGACAC | -5.16 ± 0.24 | -3.06 ± 0.22 |
| ACATTTGTTGATACAACCATAAAATGATAATTACACCCATAAATTGATAATTATCACACCCATAAATTGATATTGCGACTGATCATAGTCAGACCAACATTGCTACGACCCGTATTCGCACCGACAC | -0.0819 ± 0.0067 | -0.0636 ± 0.17 |
| ACATTTGTTGATACAACCATAAAATGATAATTAATAATTATTTATAATCAGCAACTTAACACCCATAAATTGATAATTATCACACCCATAAATTGATATTGCCTCTGATCATAGTCAGACCAACATT | -3.62 ± 0.28 | -0.417 ± 0.9 |
| ACATTTGTTGATACAACCATAAAATGATAATTACACCCATAAATTGATAATTATCAAAACACCCATAAATTGATATTGCCTCTGATCATAGTCAGACCAACATTGCTACGACCCGTATTCGCACCGA | -0.514 ± 0.17 | 2.29 ± 0.22 |
| ACATTTGTCGATCCAACCATAAAATGATAATTACACCCATAAATTGATCATTATCACACCCAATTTAACTATAACGCTCTGATCATAGTCAGACCAACATTGCTACGACCCGTATTCGCACCGACAC | -1.61 ± 0.25 | 2.167 ± 0.0082 |
